# Test system: Escherichia coli TOP10
# Assay: shrunken log2 fold change of peptide-encoding DNA abundance (4.5 h post-induction vs induction); higher = less antimicrobial activity (less host growth inhibition)
# Conditions: time post-induction: 4.5 h; library: site-saturation at positions 5, 18, 19, 20
# 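Also: peptides expressed intracellularly from a pBAD plasmid library in pooled LB shake-flask culture, induced with 0.3% L-arabinose, DNA abundance read by NGS, three biological replicates, DESeq2 with apeglm shrinkage.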
row,Sequence,shrunken log2 fold change
1,RRIRPRPPRLPRPRPRPEAYPRP,0.00183
2,RRIRDRPPRLPRPRPRPPAMPRP,0.87
3,RRIRVRPPRLPRPRPRPNCTPRP,-0.0535
4,RRIRYRPPRLPRPRPRPLGFPRP,-0.662
5,RRIRARPPRLPRPRPRPLCCPRP,0.305
6,RRIRGRPPRLPRPRPRPEAPPRP,1.73
7,RRIRTRPPRLPRPRPRPADEPRP,-0.0108
8,RRIRRRPPRLPRPRPRPNAYPRP,0.0409
9,RRIRVRPPRLPRPRPRPVKRPRP,0.0275
10,RRIRYRPPRLPRPRPRPPQLPRP,-0.371
11,RRIRPRPPRLPRPRPRPIDKPRP,-0.188
12,RRIRPRPPRLPRPRPRPTFHPRP,0.0667
13,RRIRDRPPRLPRPRPRPRVLPRP,0.173
14,RRIRDRPPRLPRPRPRPIAKPRP,0.0483
15,RRIRLRPPRLPRPRPRPHRCPRP,-0.0644
16,RRIRSRPPRLPRPRPRPYCRPRP,-0.512
17,RRIRTRPPRLPRPRPRPQVDPRP,-0.0209
18,RRIRTRPPRLPRPRPRPSYPPRP,-1.08
19,RRIRYRPPRLPRPRPRPKPNPRP,-0.158
20,RRIRMRPPRLPRPRPRPSMWPRP,0.09
21,RRIRDRPPRLPRPRPRPHCMPRP,-0.24
22,RRIRDRPPRLPRPRPRPWGMPRP,-0.165

row,Sequence,shrunken log2 fold change
1,RRIRWRPPRLPRPRPRPVYFPRP,-0.418
2,RRIRSRPPRLPRPRPRPNFVPRP,-0.0465
3,RRIRRRPPRLPRPRPRPCSLPRP,0.00239
4,RRIRLRPPRLPRPRPRPYMVPRP,-0.288
5,RRIRARPPRLPRPRPRPVRDPRP,0.315
6,RRIRTRPPRLPRPRPRPESNPRP,-0.178
7,RRIRLRPPRLPRPRPRPSPWPRP,-0.149
8,RRIRLRPPRLPRPRPRPTQFPRP,0.192
9,RRIRPRPPRLPRPRPRPQLMPRP,-0.0192
10,RRIRWRPPRLPRPRPRPKHWPRP,0.4
11,RRIRDRPPRLPRPRPRPEVMPRP,0.152
12,RRIRDRPPRLPRPRPRPGRHPRP,0.186
13,RRIRFRPPRLPRPRPRPDRPPRP,0.033
14,RRIRYRPPRLPRPRPRPREIPRP,-0.442
15,RRIRTRPPRLPRPRPRPVRHPRP,-0.041
16,RRIRHRPPRLPRPRPRPMYMPRP,-0.369
17,RRIRIRPPRLPRPRPRPEFYPRP,-0.333
18,RRIRCRPPRLPRPRPRPAFRPRP,0.25
19,RRIRRRPPRLPRPRPRPSGSPRP,-0.0977
20,RRIRRRPPRLPRPRPRPTYEPRP,-0.21
21,RRIRVRPPRLPRPRPRPAMGPRP,0.34
22,RRIRGRPPRLPRPRPRPHGHPRP,0.382

row,Sequence,shrunken log2 fold change
1,RRIRCRPPRLPRPRPRPPLGPRP,0.807
2,RRIRSRPPRLPRPRPRPICNPRP,-0.0128
3,RRIRVRPPRLPRPRPRPWPPPRP,0.46
4,RRIRPRPPRLPRPRPRPGLSPRP,0.206
5,RRIRMRPPRLPRPRPRPFWAPRP,0.509
6,RRIRARPPRLPRPRPRPVDNPRP,0.0773
7,RRIRFRPPRLPRPRPRPQSYPRP,-0.111
8,RRIRWRPPRLPRPRPRPVPYPRP,-0.638
9,RRIRFRPPRLPRPRPRPVERPRP,0.0308
10,RRIRYRPPRLPRPRPRPCPSPRP,0.109
11,RRIRRRPPRLPRPRPRPMFCPRP,0.235
12,RRIRERPPRLPRPRPRPAFPPRP,0.295
13,RRIRTRPPRLPRPRPRPFFWPRP,0.276
14,RRIRPRPPRLPRPRPRPQTFPRP,-0.495
15,RRIRDRPPRLPRPRPRPVPEPRP,0.252
16,RRIRARPPRLPRPRPRPFLAPRP,-0.122
17,RRIRARPPRLPRPRPRPDRCPRP,0.285
18,RRIRCRPPRLPRPRPRPMFRPRP,-0.179
19,RRIRYRPPRLPRPRPRPDYPPRP,-0.14
20,RRIRQRPPRLPRPRPRPDRKPRP,-0.085
21,RRIRSRPPRLPRPRPRPDGDPRP,-0.197
22,RRIRQRPPRLPRPRPRPRTLPRP,0.0409

row,Sequence,shrunken log2 fold change
1,RRIRQRPPRLPRPRPRPHNRPRP,-0.372
2,RRIRFRPPRLPRPRPRPCTTPRP,-0.381
3,RRIRIRPPRLPRPRPRPCCPPRP,-0.168
4,RRIRQRPPRLPRPRPRPWGMPRP,-0.0405
5,RRIRMRPPRLPRPRPRPMGWPRP,0.808
6,RRIRYRPPRLPRPRPRPVTKPRP,-0.543
7,RRIRGRPPRLPRPRPRPTKRPRP,0.533
8,RRIRMRPPRLPRPRPRPDLVPRP,1.01
9,RRIRDRPPRLPRPRPRPEQQPRP,0.374
10,RRIRIRPPRLPRPRPRPGLCPRP,0.108
11,RRIRYRPPRLPRPRPRPGYEPRP,0.026
12,RRIRKRPPRLPRPRPRPNVVPRP,0.0163
13,RRIRLRPPRLPRPRPRPTAVPRP,0.0335
14,RRIRQRPPRLPRPRPRPISNPRP,-0.223
15,RRIRPRPPRLPRPRPRPIDFPRP,-0.125
16,RRIRMRPPRLPRPRPRPCTQPRP,-0.111
17,RRIRFRPPRLPRPRPRPEMTPRP,-0.328
18,RRIRMRPPRLPRPRPRPYHIPRP,-0.69
19,RRIRLRPPRLPRPRPRPSASPRP,0.0218
20,RRIRHRPPRLPRPRPRPMIRPRP,-0.173
21,RRIRMRPPRLPRPRPRPWDFPRP,0.121
22,RRIRERPPRLPRPRPRPHSTPRP,-0.817

row,Sequence,shrunken log2 fold change
1,RRIRCRPPRLPRPRPRPNNVPRP,-0.687
2,RRIRSRPPRLPRPRPRPIPYPRP,-0.344
3,RRIRSRPPRLPRPRPRPCVMPRP,0.0389
4,RRIRMRPPRLPRPRPRPVFVPRP,0.0672
5,RRIRMRPPRLPRPRPRPRTKPRP,1.21
6,RRIRCRPPRLPRPRPRPEKGPRP,0.0373
7,RRIRERPPRLPRPRPRPNFRPRP,-0.479
8,RRIRRRPPRLPRPRPRPFHQPRP,-0.191
9,RRIRQRPPRLPRPRPRPIEMPRP,-0.0847
10,RRIRERPPRLPRPRPRPAKKPRP,0.00764
11,RRIRVRPPRLPRPRPRPKQDPRP,-0.266
12,RRIRRRPPRLPRPRPRPSRNPRP,0.453
13,RRIRNRPPRLPRPRPRPEAVPRP,0.0335
14,RRIRHRPPRLPRPRPRPRFIPRP,-0.135
15,RRIRCRPPRLPRPRPRPRALPRP,0.113
16,RRIRIRPPRLPRPRPRPYWCPRP,0.0219
17,RRIRVRPPRLPRPRPRPWCVPRP,-0.504
18,RRIRGRPPRLPRPRPRPALVPRP,1.02
19,RRIRWRPPRLPRPRPRPEKDPRP,-0.0712
20,RRIRHRPPRLPRPRPRPITSPRP,-0.401
21,RRIRQRPPRLPRPRPRPRMYPRP,-0.2

# Source: the supplement of paper PMC9112550, “Optimization of the antimicrobial peptide Bac7 by deep mutational scanning” (BMC Biology, 2022)
